In patent US7285381:

Tests used:
[1] = molecular target: AAV2 capsid mutant I-447 (P1 peptide inserted after amino acid 447) (AAV2) (UniProt P03135); experiment: A20 capsid ELISA on CsCl-purified particles
[2] = molecular target: Wild-type AAV2 capsid (AAV2) (UniProt P03135); experiment: A20 capsid ELISA on CsCl-purified particles
[3] = molecular target: AAV2 capsid mutant I-587 (P1 peptide inserted after amino acid 587) (AAV2) (UniProt P03135); experiment: A20 capsid ELISA on CsCl-purified particles
[4] = molecular target: AAV2 capsid VP1 mutant ΔBH+L (deletion between BsrBI and HindIII, and insertion of the P1 peptide) (AAV2) (UniProt P03135); experiment: A20 capsid ELISA on virus stock
[5] = molecular target: AAV2 capsid VP3 mutant ins587 (insertion after amino acid 587, site LQRGN RQAAT) (AAV2) (UniProt P03135); experiment: A20 capsid ELISA on virus stock
[6] = molecular target: Wild-type AAV2 capsid (AAV2) (UniProt P03135); experiment: A20 capsid ELISA on virus stock
[7] = molecular target: AAV2 capsid VP1 mutant ΔXho (deletion between the XhoI-XhoI cleavage sites of VP-1, 62 amino acids) (AAV2) (UniProt P03135); experiment: A20 capsid ELISA on virus stock
[8] = molecular target: AAV2 capsid VP3 mutant ins447 (insertion after amino acid 447, site YYLSR TNTPS) (AAV2) (UniProt P03135); experiment: A20 capsid ELISA on virus stock
[9] = molecular target: AAV2 capsid VP1 mutant B+L (insertion of the P1 peptide at the BsrBI cleavage site) (AAV2) (UniProt P03135); experiment: A20 capsid ELISA on virus stock
[10] = molecular target: AAV2 capsid VP1 mutant ΔBH (deletion between BsrBI and HindIII cleavage sites of VP-1, 29 amino acids) (AAV2) (UniProt P03135); experiment: A20 capsid ELISA on virus stock

For A20 monoclonal antibody, the titer (ELISA with A20 MAb) [1] was 8e+11 particles/ml, the titer (ELISA with A20 MAb) [2] was 6e+12 particles/ml and the titer (ELISA with A20 MAb) [3] was 3e+12 particles/ml. It also gave a capsid titer (ELISA with A20 MAb) [4] of 5e+10 particles/ml, a capsid titer (ELISA with A20 MAb) [5] of 2e+10 particles/ml and a capsid titer (ELISA with A20 MAb) [6] of 1e+11 particles/ml. It also gave a capsid titer (ELISA with A20 MAb) [7] of 5e+10 particles/ml, a capsid titer (ELISA with A20 MAb) [8] of 4e+10 particles/ml and a capsid titer (ELISA with A20 MAb) [9] of 5e+09 particles/ml. It also gave a capsid titer (ELISA with A20 MAb) [10] of 4e+09 particles/ml.
